The record followed here is patent publication US5773647A, “Compounds and compositions for delivering active agents” (Emisphere Technologies, Inc., priority 1997, dated 1998).

Like-named read-outs stand apart in the source and are kept apart here.

Data set [1] in a line: In vivo interferon delivery (ELISA for human interferon). To be noted: 1 mg/kg interferon, no carrier. On the technique in general: ELISA stands for enzyme-linked immunosorbent assay.
Protocol: (§1) An intracolonic dosing composition containing 50 mg/kg of carrier 9 and 250 μg/kg of interferon in 50% propylene glycol was prepared. Rats were administered the dosing composition by intracolonic instillation.
(§2) Rats were administered, orally and by intracolonic instillation, dosing solutions of 1 mg/kg of interferon and no carrier.
For data set [2] the following is noted: rat, in vivo, 50 mg/kg.
Protocol: as §1, §2

As to interferon, the “Mean peak serum interferon concentration” value in data set [1] (intracolonic (IC)) worked out at 79±100; in data set [1] (oral (PO)), 1951±1857.

Turning to `O=C(O)CCCc1ccc(NC(=O)COc2ccccc2)cc1` [Compound 9], the “Mean peak serum interferon concentration” value in data set [2] is reported as 2611±695.
